In patent US20200353067A1:

Biological target: CX3CR1 (fractalkine receptor) (human) (UniProt P49238)
Assay: cell-based or functional assay

Sequence of UniProt P49238 (P49238 whole entry): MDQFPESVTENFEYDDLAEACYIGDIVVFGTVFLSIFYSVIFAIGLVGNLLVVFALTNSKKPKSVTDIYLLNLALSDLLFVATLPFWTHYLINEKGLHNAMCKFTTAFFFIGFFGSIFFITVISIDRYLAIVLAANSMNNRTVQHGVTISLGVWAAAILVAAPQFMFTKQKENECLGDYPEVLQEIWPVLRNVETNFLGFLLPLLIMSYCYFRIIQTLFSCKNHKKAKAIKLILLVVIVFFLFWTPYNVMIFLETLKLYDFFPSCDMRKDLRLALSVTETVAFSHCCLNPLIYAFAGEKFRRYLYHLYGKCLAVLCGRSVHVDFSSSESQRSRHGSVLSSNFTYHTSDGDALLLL

Substance: RSV A2 strain G-protein (surface attachment glycoprotein) (from UniProt P03423 1-298) (ligand)
- viral load: 2.3 fold
